{"source": "the Immune Epitope Database (IEDB)", "key": {"HLA-A*02:03": {"target": "HLA-A*02:03", "assay": "IEDB peptide-MHC binding, purified MHC/direct/fluorescence; filed as Kd, often an IC50 or EC50 that approximates it; ≥ and ≤ were set here for values at or beyond the usual limits of such assays"}, "HLA-B*46:01": {"target": "HLA-B*46:01", "assay": "IEDB peptide-MHC binding, purified MHC/direct/fluorescence; filed as Kd, often an IC50 or EC50 that approximates it; ≥ and ≤ were set here for values at or beyond the usual limits of such assays"}, "HLA-A*02:12": {"target": "HLA-A*02:12", "assay": "IEDB peptide-MHC binding, purified MHC/direct/fluorescence; filed as Kd, often an IC50 or EC50 that approximates it; ≥ and ≤ were set here for values at or beyond the usual limits of such assays"}, "HLA-B*51:01": {"target": "HLA-B*51:01", "assay": "IEDB peptide-MHC binding, purified MHC/direct/fluorescence; filed as Kd, often an IC50 or EC50 that approximates it; ≥ and ≤ were set here for values at or beyond the usual limits of such assays", "details": "source organism: Vibrio vulnificus YJ016"}, "HLA-A*02:19": {"target": "HLA-A*02:19", "assay": "IEDB peptide-MHC binding, purified MHC/direct/fluorescence; filed as Kd, often an IC50 or EC50 that approximates it; ≥ and ≤ were set here for values at or beyond the usual limits of such assays"}, "HLA-B*57:01": {"target": "HLA-B*57:01", "assay": "IEDB peptide-MHC binding, purified MHC/direct/fluorescence; filed as Kd, often an IC50 or EC50 that approximates it; ≥ and ≤ were set here for values at or beyond the usual limits of such assays"}, "HLA-A*03:01": {"target": "HLA-A*03:01", "assay": "IEDB peptide-MHC binding, purified MHC/direct/fluorescence; filed as Kd, often an IC50 or EC50 that approximates it; ≥ and ≤ were set here for values at or beyond the usual limits of such assays"}, "HLA-B*18:01": {"target": "HLA-B*18:01", "assay": "IEDB peptide-MHC binding, purified MHC/direct/fluorescence; filed as Kd, often an IC50 or EC50 that approximates it; ≥ and ≤ were set here for values at or beyond the usual limits of such assays"}, "HLA-B*15:01": {"target": "HLA-B*15:01", "assay": "IEDB peptide-MHC binding, purified MHC/direct/fluorescence; filed as Kd, often an IC50 or EC50 that approximates it; ≥ and ≤ were set here for values at or beyond the usual limits of such assays", "details": "source organism: Vibrio vulnificus YJ016"}, "HLA-A*02:01 [1]": {"target": "HLA-A*02:01", "assay": "IEDB peptide-MHC binding, purified MHC/direct/fluorescence; filed as Kd, often an IC50 or EC50 that approximates it; ≥ and ≤ were set here for values at or beyond the usual limits of such assays"}, "HLA-A*26:01": {"target": "HLA-A*26:01", "assay": "IEDB peptide-MHC binding, purified MHC/direct/fluorescence; filed as Kd, often an IC50 or EC50 that approximates it; ≥ and ≤ were set here for values at or beyond the usual limits of such assays"}, "HLA-A*02:16": {"target": "HLA-A*02:16", "assay": "IEDB peptide-MHC binding, purified MHC/direct/fluorescence; filed as Kd, often an IC50 or EC50 that approximates it; ≥ and ≤ were set here for values at or beyond the usual limits of such assays"}, "HLA-B*27:03": {"target": "HLA-B*27:03", "assay": "IEDB peptide-MHC binding, purified MHC/direct/fluorescence; filed as Kd, often an IC50 or EC50 that approximates it; ≥ and ≤ were set here for values at or beyond the usual limits of such assays"}, "HLA-C*04:01": {"target": "HLA-C*04:01", "assay": "IEDB peptide-MHC binding, purified MHC/competitive/fluorescence; filed as Kd, often an IC50 or EC50 that approximates it; ≥ and ≤ were set here for values at or beyond the usual limits of such assays", "details": "source organism: human gammaherpesvirus 4"}, "HLA-B*15:42": {"target": "HLA-B*15:42", "assay": "IEDB peptide-MHC binding, purified MHC/competitive/fluorescence; filed as Kd, often an IC50 or EC50 that approximates it; ≥ and ≤ were set here for values at or beyond the usual limits of such assays"}, "HLA-A*02:01 [2]": {"target": "HLA-A*02:01", "assay": "IEDB peptide-MHC binding, purified MHC/competitive/fluorescence; filed as Kd, often an IC50 or EC50 that approximates it; ≥ and ≤ were set here for values at or beyond the usual limits of such assays"}, "HLA-B*45:06": {"target": "HLA-B*45:06", "assay": "IEDB peptide-MHC binding, purified MHC/competitive/fluorescence; filed as Kd, often an IC50 or EC50 that approximates it; ≥ and ≤ were set here for values at or beyond the usual limits of such assays"}, "HLA-B*83:01": {"target": "HLA-B*83:01", "assay": "IEDB peptide-MHC binding, purified MHC/competitive/fluorescence; filed as Kd, often an IC50 or EC50 that approximates it; ≥ and ≤ were set here for values at or beyond the usual limits of such assays"}, "HLA-A*69:01 [3]": {"target": "HLA-A*69:01", "assay": "IEDB peptide-MHC binding, purified MHC/competitive/fluorescence; filed as Kd, often an IC50 or EC50 that approximates it; ≥ and ≤ were set here for values at or beyond the usual limits of such assays", "details": "source organism: human gammaherpesvirus 4"}, "HLA-C*05:01": {"target": "HLA-C*05:01", "assay": "IEDB peptide-MHC binding, purified MHC/direct/fluorescence; filed as Kd, often an IC50 or EC50 that approximates it; ≥ and ≤ were set here for values at or beyond the usual limits of such assays", "details": "source organism: human gammaherpesvirus 4"}, "HLA-C*15:02": {"target": "HLA-C*15:02", "assay": "IEDB peptide-MHC binding, purified MHC/direct/fluorescence; filed as Kd, often an IC50 or EC50 that approximates it; ≥ and ≤ were set here for values at or beyond the usual limits of such assays"}, "HLA-B*15:17": {"target": "HLA-B*15:17", "assay": "IEDB peptide-MHC binding, purified MHC/direct/fluorescence; filed as Kd, often an IC50 or EC50 that approximates it; ≥ and ≤ were set here for values at or beyond the usual limits of such assays", "details": "source organism: Burkholderia mallei ATCC 23344"}, "HLA-B*39:01": {"target": "HLA-B*39:01", "assay": "IEDB peptide-MHC binding, purified MHC/direct/fluorescence; filed as Kd, often an IC50 or EC50 that approximates it; ≥ and ≤ were set here for values at or beyond the usual limits of such assays", "details": "source organism: Burkholderia mallei ATCC 23344"}, "HLA-A*24:03": {"target": "HLA-A*24:03", "assay": "IEDB peptide-MHC binding, purified MHC/direct/fluorescence; filed as Kd, often an IC50 or EC50 that approximates it; ≥ and ≤ were set here for values at or beyond the usual limits of such assays", "details": "source organism: Burkholderia mallei ATCC 23344"}, "HLA-A*68:02": {"target": "HLA-A*68:02", "assay": "IEDB peptide-MHC binding, purified MHC/direct/fluorescence; filed as Kd, often an IC50 or EC50 that approximates it; ≥ and ≤ were set here for values at or beyond the usual limits of such assays", "details": "source organism: Burkholderia mallei ATCC 23344"}, "HLA-A*69:01 [4]": {"target": "HLA-A*69:01", "assay": "IEDB peptide-MHC binding, purified MHC/direct/fluorescence; filed as Kd, often an IC50 or EC50 that approximates it; ≥ and ≤ were set here for values at or beyond the usual limits of such assays", "details": "source organism: Burkholderia mallei ATCC 23344"}, "HLA-A*02:11": {"target": "HLA-A*02:11", "assay": "IEDB peptide-MHC binding, purified MHC/direct/fluorescence; filed as Kd, often an IC50 or EC50 that approximates it; ≥ and ≤ were set here for values at or beyond the usual limits of such assays", "details": "source organism: Burkholderia mallei ATCC 23344"}, "HLA-C*14:02": {"target": "HLA-C*14:02", "assay": "IEDB peptide-MHC binding, purified MHC/competitive/fluorescence; filed as Kd, often an IC50 or EC50 that approximates it; ≥ and ≤ were set here for values at or beyond the usual limits of such assays", "details": "source organism: Yellow fever virus"}, "[5]": {"details": "source organism: Vibrio vulnificus YJ016"}, "[6]": {"details": "source organism: human gammaherpesvirus 4"}, "[7]": {"details": "source organism: Camelpox virus CMS"}, "[8]": {"details": "source organism: Burkholderia mallei ATCC 23344"}, "[9]": {"details": "source organism: Yellow fever virus"}}}
{"sequence": "FPLWNTEKI", "values": [{"measurement": "Kd", "setting": "HLA-A*02:03; [5]", "result": "≥ 20", "unit": "µM"}, {"measurement": "Kd", "setting": "HLA-B*46:01; [5]", "result": "≥ 20", "unit": "µM"}, {"measurement": "Kd", "setting": "HLA-A*02:12; [5]", "result": "≥ 20", "unit": "µM"}, {"measurement": "Kd", "setting": "HLA-B*51:01", "result": 0.071, "unit": "µM"}, {"measurement": "Kd", "setting": "HLA-A*02:19; [5]", "result": "≥ 20", "unit": "µM"}, {"measurement": "Kd", "setting": "HLA-B*57:01; [5]", "result": "≥ 20", "unit": "µM"}, {"measurement": "Kd", "setting": "HLA-A*03:01; [5]", "result": "≥ 20", "unit": "µM"}, {"measurement": "Kd", "setting": "HLA-B*18:01; [5]", "result": "≥ 20", "unit": "µM"}, {"measurement": "Kd", "setting": "HLA-B*15:01", "result": "≥ 20", "unit": "µM"}, {"measurement": "Kd", "setting": "HLA-A*02:01 [1]; [5]", "result": "≥ 20", "unit": "µM"}, {"measurement": "Kd", "setting": "HLA-A*26:01; [5]", "result": "≥ 20", "unit": "µM"}, {"measurement": "Kd", "setting": "HLA-A*02:16; [5]", "result": "≥ 20", "unit": "µM"}, {"measurement": "Kd", "setting": "HLA-B*27:03; [5]", "result": "≥ 20", "unit": "µM"}]}
{"sequence": "FTASVSTVV", "values": [{"measurement": "Kd", "setting": "HLA-C*04:01", "result": "≥ 5", "unit": "µM"}, {"measurement": "Kd", "setting": "HLA-B*15:42; [6]", "result": "≥ 5", "unit": "µM"}, {"measurement": "Kd", "setting": "HLA-A*02:01 [2]; [6]", "result": 0.0027, "unit": "µM"}, {"measurement": "Kd", "setting": "HLA-B*45:06; [6]", "result": "≥ 5", "unit": "µM"}, {"measurement": "Kd", "setting": "HLA-B*83:01; [6]", "result": "≥ 5", "unit": "µM"}, {"measurement": "Kd", "setting": "HLA-A*69:01 [3]", "result": "≤ 0.0001", "unit": "µM"}, {"measurement": "Kd", "setting": "HLA-C*05:01", "result": 3.95, "unit": "µM"}]}
{"sequence": "IVIEAIHTV", "values": [{"measurement": "Kd", "setting": "HLA-A*02:01 [2]; [7]", "result": 0.0021, "unit": "µM"}, {"measurement": "Kd", "setting": "HLA-C*15:02; [7]", "result": 0.341, "unit": "µM"}]}
{"sequence": "LVTGAGSGF", "values": [{"measurement": "Kd", "setting": "HLA-A*02:03; [8]", "result": "≥ 20", "unit": "µM"}, {"measurement": "Kd", "setting": "HLA-B*46:01; [8]", "result": "≥ 20", "unit": "µM"}, {"measurement": "Kd", "setting": "HLA-A*02:12; [8]", "result": "≥ 20", "unit": "µM"}, {"measurement": "Kd", "setting": "HLA-B*15:17", "result": 0.148, "unit": "µM"}, {"measurement": "Kd", "setting": "HLA-A*02:19; [8]", "result": "≥ 20", "unit": "µM"}, {"measurement": "Kd", "setting": "HLA-B*57:01; [8]", "result": "≥ 20", "unit": "µM"}, {"measurement": "Kd", "setting": "HLA-A*03:01; [8]", "result": "≥ 20", "unit": "µM"}, {"measurement": "Kd", "setting": "HLA-B*18:01; [8]", "result": "≥ 20", "unit": "µM"}, {"measurement": "Kd", "setting": "HLA-A*02:01 [1]; [8]", "result": "≥ 20", "unit": "µM"}, {"measurement": "Kd", "setting": "HLA-B*39:01", "result": "≥ 20", "unit": "µM"}, {"measurement": "Kd", "setting": "HLA-A*26:01; [8]", "result": "≥ 20", "unit": "µM"}, {"measurement": "Kd", "setting": "HLA-A*24:03", "result": "≥ 20", "unit": "µM"}, {"measurement": "Kd", "setting": "HLA-A*68:02", "result": "≥ 20", "unit": "µM"}, {"measurement": "Kd", "setting": "HLA-A*69:01 [4]", "result": "≥ 20", "unit": "µM"}, {"measurement": "Kd", "setting": "HLA-A*02:16; [8]", "result": "≥ 20", "unit": "µM"}, {"measurement": "Kd", "setting": "HLA-B*27:03; [8]", "result": "≥ 20", "unit": "µM"}, {"measurement": "Kd", "setting": "HLA-A*02:11", "result": "≥ 20", "unit": "µM"}]}
{"sequence": "MWHVTRGAF", "values": [{"measurement": "Kd", "setting": "HLA-C*14:02", "result": 0.0028, "unit": "µM"}, {"measurement": "Kd", "setting": "HLA-B*15:42; [9]", "result": "≥ 5", "unit": "µM"}, {"measurement": "Kd", "setting": "HLA-B*45:06; [9]", "result": "≥ 5", "unit": "µM"}, {"measurement": "Kd", "setting": "HLA-B*83:01; [9]", "result": "≥ 5", "unit": "µM"}, {"measurement": "Kd", "setting": "HLA-C*15:02; [9]", "result": "≥ 20", "unit": "µM"}]}
